“And” between values parts separate entries of the source, which are not always exact repeats. Equal values may be shown once.
Molecular target: T1, human ribonucleotide reductase small subunit β′ (p53R2) (human, UniProt Q7LG56 1-351)
T1 sequence (looked up): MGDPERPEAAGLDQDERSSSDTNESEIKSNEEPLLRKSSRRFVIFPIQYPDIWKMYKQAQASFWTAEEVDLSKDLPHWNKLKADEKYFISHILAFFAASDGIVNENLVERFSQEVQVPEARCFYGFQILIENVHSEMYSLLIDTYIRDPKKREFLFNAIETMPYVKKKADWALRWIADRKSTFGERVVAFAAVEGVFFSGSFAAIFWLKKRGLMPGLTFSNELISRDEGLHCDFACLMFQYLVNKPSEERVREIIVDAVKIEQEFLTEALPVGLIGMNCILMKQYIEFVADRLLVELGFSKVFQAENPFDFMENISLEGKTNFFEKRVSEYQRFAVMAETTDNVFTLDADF
Assay: SEC

B1: human ribonucleotide reductase large subunit α (enzyme, UniProt P23921 1-792, looked up)
chain: MHVIKRDGRQERVMFDKITSRIQKLCYGLNMDFVDPAQITMKVIQGLYSGVTTVELDTLAAETAATLTTKHPDYAILAARIAVSNLHKETKKVFSDVMEDLYNYINPHNGKHSPMVAKSTLDIVLANKDRLNSAIIYDRDFSYNYFGFKTLERSYLLKINGKVAERPQHMLMRVSVGIHKEDIDAAIETYNLLSERWFTHASPTLFNAGTNRPQLSSCFLLSMKDDSIEGIYDTLKQCALISKSAGGIGVAVSCIRATGSYIAGTNGNSNGLVPMLRVYNNTARYVDQGGNKRPGAFAIYLEPWHLDIFEFLDLKKNTGKEEQRARDLFFALWIPDLFMKRVETNQDWSLMCPNECPGLDEVWGEEFEKLYASYEKQGRVRKVVKAQQLWYAIIESQTETGTPYMLYKDSCNRKSNQQNLGTIKCSNLCTEIVEYTSKDEVAVCNLASLALNMYVTSEHTYDFKKLAEVTKVVVRNLNKIIDINYYPVPEACLSNKRHRPIGIGVQGLADAFILMRYPFESAEAQLLNKQIFETIYYGALEASCDLAKEQGPYETYEGSPVSKGILQYDMWNVTPTDLWDWKVLKEKIAKYGIRNSLLIAPMPTASTAQILGNNESIEPYTSNIYTRRVLSGEFQIVNPHLLKDLTERGLWHEEMKNQIIACNGSIQSIPEIPDDLKQLYKTVWEISQKTVLKMAAERGAFIDQSQSLNIHIAEPNYGKLTSMHFYGWKQGLKTGMYYLRTRPAANPIQFTLNKEKLKDKEKVSKEEEEKERNTAAMVCSLENRDECLMCGS
stoichiometry N: 1.2 α:β' and 1 α:β' and 1.06 α:β'
